From patent US20200181261A1 (Bayer, published 2020)

Key:
[1] = target: T1, Macaca mulatta CEACAM6-Xa-Fc-His (Macaca mulatta); assay: SPR, antibody captured, antigen as analyte
T1 construct: extracellular (mature form) fused to Factor Xa site, human IgG1 Fc and His tag; the entry is the whole fusion; also called TPP-1306; MM WT
Description: Surface plasmon resonance (SPR) experiments for quantitative binding analyses were performed either using a Biacore T100, Biacore T200 or a Biacore 4000 instrument (GE Healthcare Biacore, Inc.) equipped with Series S Sensor Chips CM5 (GE Healthcare Biacore, Inc.). Binding assays were carried out at 25° C. with assay buffer HBS-EP+(10 mM HEPES pH 7.4, 150 mM NaCl, 3 mM EDTA, 0.05% Surfactant P20). Antibodies were captured with an anti-hIgG capture antibody covalently immobilized to the chip surface via amine coupling chemistry. Reagents for amine coupling (1-ethyl-3-(3-dimethylaminopropyl) carbodiimide hydrochloride (EDC), N-hydroxysuccinimide (NHS), ethanolamine-HCl pH 8.5) were used from the Amine Coupling Kit (GE Healthcare, product code BR-1000-50). Anti-hIgG, anti-mIgG capture antibodies and immobilization buffer (10 mM sodium acetate pH 5.0) were used from the Human Antibody Capture Kit (GE Healthcare, BR-1008-39) and the Mouse Antibody Capture Kit (GE Healthcare, BR-1008-38), respectively. The sensor chip surface was activated with a freshly prepared solution of 0.2 M EDC and 0.05 M NHS passed over the chip surface for 420 s at a flow rate of 10 μl/min, followed by an injection of anti-hIgG or anti-mIgG capture antibody (dissolved to 25 μg/ml in immobilization buffer) for 180 s at a flow rate of […]. Excess of activated groups were blocked with a 1 molar solution of ethanolamine injected at a flow rate of 10 μl/min for 420 s.
CEACAM antigens were used as analyte to determine KD values. Antibodies were captured for 20 s at a flow rate of 10 μl/min prior to each analyte injection.
Obtained sensorgrams were double-referenced, i.e. in-line reference cell correction followed by buffer sample subtraction.

[2] = target: T2, Human CEACAM6-Dom2-MacMul-Xa-Fc-His (human, Domain 2 from Macaca mulatta); assay: domain mapping ELISA, antigen coated
T2 construct: domain chimera fused to Xa-Fc-His; also called TPP-1792; DOM2 MM
Description: (§1) For ELISA analysis, the Fc-fused domain chimeras and the single domain 1 were coated on Nunc MaxiSorb plates and blocked with SmartBlock solution. After incubation with an IgG-concentration series (1 nM-1000 nM) for 1 h, plates were washed with PBS/T. Analysis of the bound IgGs to the CEACAM6 domain constructs was achieved over detection via Anti-Human IgG (Fab specific)-Peroxidase antibody (A0293, Sigma). Fluorescence detection was performed with AmplexRed (A12222, Invitrogen) following standard protocols.

[3] = target: T3, Human CEACAM6-Domain 1-His (expressed in E. coli), wild-type (human); assay: domain mapping ELISA, antigen coated
T3 construct: entry includes the His tag; also called hDOM1
T3 chain: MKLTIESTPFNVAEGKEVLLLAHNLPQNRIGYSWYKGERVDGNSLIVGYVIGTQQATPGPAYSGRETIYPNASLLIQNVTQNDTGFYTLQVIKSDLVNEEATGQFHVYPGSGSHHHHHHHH
Description: as §1

[4] = target: T4, human CEACAM5, extracellular (mature form), R&D Systems 4128-CM (human, UniProt P06731 35-685); assay: ELISA, antigen coated
T4 construct: used biotinylated in some assays; also called TPP-1438; hC5
T4 sequence: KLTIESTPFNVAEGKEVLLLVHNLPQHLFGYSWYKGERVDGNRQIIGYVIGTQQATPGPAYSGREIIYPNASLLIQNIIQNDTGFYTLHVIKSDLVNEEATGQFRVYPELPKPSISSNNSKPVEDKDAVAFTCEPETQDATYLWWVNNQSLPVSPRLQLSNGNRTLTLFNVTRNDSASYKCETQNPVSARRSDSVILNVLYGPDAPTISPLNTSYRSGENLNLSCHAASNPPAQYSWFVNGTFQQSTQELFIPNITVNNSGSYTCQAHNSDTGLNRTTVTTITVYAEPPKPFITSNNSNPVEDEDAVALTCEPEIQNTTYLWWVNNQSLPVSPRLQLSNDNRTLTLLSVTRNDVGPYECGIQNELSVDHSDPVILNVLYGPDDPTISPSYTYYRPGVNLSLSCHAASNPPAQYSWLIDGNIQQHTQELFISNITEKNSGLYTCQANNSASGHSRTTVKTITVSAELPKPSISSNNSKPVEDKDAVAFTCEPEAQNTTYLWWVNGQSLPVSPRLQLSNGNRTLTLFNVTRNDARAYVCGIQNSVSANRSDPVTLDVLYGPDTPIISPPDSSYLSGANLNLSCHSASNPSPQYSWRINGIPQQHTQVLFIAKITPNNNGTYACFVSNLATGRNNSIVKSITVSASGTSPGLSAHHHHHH
Description: (§2) ELISAs were used to characterize the binding of antibodies to various CEACAM paralogs and orthologs. Black 384-well plates were coated with […] of various CEACAM protein preparations at 2 μg/ml in coating buffer (Candor) for 1 h at 37° C. After one wash with PBS/0.05% Tween-20, wells were blocked with 100% Smart Block (Candor) for one hour at 37° C. After three washes with PBS/0.05% Tween-20, dilution series of the antibodies in PBS/0.05% Tween-20/10% Smart Block ranging from 2 μg/ml to 2 ng/ml were added and the plates were incubated for 1 h at room temperature. After three washes with PBS/0.05% Tween-20, an appropriate secondary antibody was added. For detection of proteins with a human Fc such as TPP-1173, an anti-human IgG HRP (Sigma A0170) was used at 1:10.000 dilution. For detection of proteins with a mouse Fc such as TPP-1744 an anti-mouse IgG HRP (ThermoScientific 31432) was used at 1:10.000 dilution. PBS/0.05% Tween-20/10% Smart Block was used as dilution buffer. The plates were incubated for 1 hour at room temperature. After three washes, the plates were developed with Amplex Red (Life Technologies) and fluorescence was read at an emission wavelength of 590 nm. GraphPad Prism 6.0 software was used to calculate EC₅₀ values using four-parameter non-linear curve fit. […]

[5] = target: T5, Macaca fascicularis CEACAM6, extracellular (mature form), obtained by Factor Xa cleavage of TPP-2443 (Macaca fascicularis); assay: ELISA, antigen coated
T5 construct: used biotinylated in some assays; also called APP-319; Cynomolgus CEACAM6
T5 chain: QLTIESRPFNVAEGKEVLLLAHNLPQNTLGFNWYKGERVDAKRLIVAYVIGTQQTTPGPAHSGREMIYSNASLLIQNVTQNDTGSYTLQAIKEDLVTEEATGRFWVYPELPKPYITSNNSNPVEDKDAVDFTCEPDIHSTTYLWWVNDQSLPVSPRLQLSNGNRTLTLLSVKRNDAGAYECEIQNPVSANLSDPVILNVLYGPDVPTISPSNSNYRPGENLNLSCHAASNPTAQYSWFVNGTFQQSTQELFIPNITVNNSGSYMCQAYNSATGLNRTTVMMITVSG
Description: as §2

Kd [1]: 23 nM
binding result [2]: binds
binding result [3]: no binding (tested: 1000 nM IgG)
EC50 [4]: 0.09 nM
EC50 [5]: 1.35 nM
B1: Neo201 (human IgG1) (antibody, V domains shown)
VH: QVQLVQSGAEVKKPGASVKVSCKASGYTFTDYAMHWVRQAPGQRLEWMGLISTYSGDTKYNQNFQGRVTMTVDKSASTAYMELSSLRSEDTAVYYCARGDYSGSRYWFAYWGQGTLVTVSS
VL: DIQMTQSPSSLSASVGDRVTITCQASENIYGALNWYQRKPGKSPKLLIYGASNLATGMPSRFSGSGSGTDYTFTISSLQPEDIATYYCQQVLSSPYTFGGGTKLEIKR
notes: based on US20130189268; also called TPP-1173; Neo201-hIgG1
